Results reported in the supplement of paper PMC10266784.

B1: library; numbered along this chain (parent)
chain: MAAAAAAAAEQQSSNGPVKKSMREKAVERRSVNKEHNSNFKAGYIPIDEDRLHKTGLRGRKGNLAICVIILLFILAVINLIITLVIWAVIRIGPNGCDSMEFHESGLLRFKQVSDMGVIHPLYKSTVGGRRNENLVITGNNQPIVFQQGTTKLSVENNKTSITSDIGMQFFDPRTQNILFSTDYETHEFHLPSGVKSLNVQKASTERITSNATSDLNIKVDGRAIVRGNEGVFIMGKTIEFHMGGNMELKAENSIILNGSVMVSTTRLPSSSSGDQLGSGDWVRYKLCMCADGTLFKVQVTSQNMGCQISDNPCGNTH

Variants of: B1
Assay: SGCB cell-surface expression functional score (HA stain, bin4 vs bin1, normalised to synonymous) (log10 ratio); higher = more cell-surface SGCB (functional)
Summary of the method: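 Sorting and sequencing yield the functional score, defined as the log ratio of a variant's highest-bin frequency to its lowest-bin frequency, with the median taken over codons and replicate transductions. The libraries, codon-saturation sets of HA-tagged, YFP-fused human beta-sarcoglycan, went into HEK293 cells stably carrying alpha-, gamma- and delta-sarcoglycan by duplicate lentiviral transduction at MOI <0.1. Cells were stained on ice with Alexa Fluor 647 anti-HA, fixed and split into four 5% intensity bins, and synonymous variants were scaled per section to mean 0, SD 0.5.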

SGCB cell-surface expression functional score (log10): each site, then its substitutions
R130: C -0.28, L 0.65, Q 0.47, N -0.47, D -1.07, W -0.57, H 0.08, V -0.41, G -0.2, S -0.4, K -0.01, F 0.13, Y 0.43, A 0.27, M 0.56, I 0.29, P 0.33, T -0.51, E 0.14
V127: R -0.96, D -1.79, T -0.96, H -1.08, Y -1.55, S -1.34, P -0.5, C 0.53, Q -1.97, M -0.2, W -1.36, F -0.12, K -1.2, A -0.57, I -0.32, G -0.79, L -0.04, E -0.65, N -0.94
T138: Y -0.33, L 0.16, K -0.25, H 0.22, W 0.68, V 0.19, S 0.4, N 0.54, C -0.1, R -0.08, G -0.34, F 0.14, M 0.02, D -0.39, A -0.51, I 0.11, Q -0.47, P -1, E -0.61
G139: M -1.05, A -0.13, Y -1.89, S 0.06, V -1.28, R -0.98, F -1.58, I -0.91, H -1.79, N 0.52, D -0.84, P -1.13, W -0.74, L -1.18, K -1.52, T -0.23, C -0.65, E -0.91, Q -1.77
N140: A -0.08, C -0.04
L135: K -1.3, S -1.11, Y -0.88, R -0.77, E -1.07, P -1, F -0.08, I -0.47, M -0.06, T -1.04, W -0.88, D -1.2, A -1.13, G -1.2, C -0.83, N -1.44, Q -1.5, V -0.35, H -1.28
Y123: Q 0.06, N 0.64, K -0.02, E 0.65, M -0.24, A 0.29, G -0.11, H -0.35, I -0.3, S 0.68, P 0.1, C 0.25, F 0.2, R -0.37, L 0.02, T -0.12, W 0.33, D -0.53, V -0.18
T126: A 0.13, R -0.36, K -0.52, Q -0.75, G -0.18, V -0.28, F 0.32, N -0.36, W 0.62, Y 0.74, H 0.76, P -0.31, M 0.29, C 0.11, L -0.13, S 0.02, I 0.24, E 0.37, D -0.63
N134: E -0.18, C -0.25, R -0.6, I -0.65, L -0.84, V -0.29, G -0.09, D 0.11, K 0.09, Y -0.82, W -0.71, Q -0.54, H 0.34, F -0.37, A 0.39, T -0.26, P -0.03, M -0.26, S 0.08
I137: M 0.54, N -1.72, K -1.21, F -0.01, V -0.52, E -0.97, W -0.8, C -1.42, D -1.25, S -1.35, P -1.44, H -1.24, A -1.07, R -1.41, L -0.12, G -1.08, T -0.7, Q -1.71, Y -1.36
S125: T -0.3, N -0.2, Y -0.79, V -0.88, R -1.09, G 0.56, E -0.08, P -0.99, K -0.93, Q -0.7, C 0.13, I -1.02, F -0.45, W -0.51, D 0.46, A -0.08, L -1.2, H -0.37, M 0.21
V136: D -0.33, N -0.01, L 0.17, M -0.57, F 0.49, Q 0.22, H -0.22, R -0.57, S -0.3, C -0.25, Y 0.15, K 0.36, A 0.05, I 0.32, W 0.57, E 0.05, G -0.58, P -1.03, T -0.51
G128: K -1.35, D -0.05, E 0.08, I 0.01, F 0.6, S 0.07, A 0.14, C -0.21, T -0.56, H -0.22, W 0.3, P -1.25, N 0.37, M 0.04, R -0.6, Q -0.11, Y 0.6, L 0.03, V -0.76
L122: Y 0.31, N -0.12, R 0.49, S 0.31, W 0.1, T 0.13, P -1.07, Q 0.48, V -0.14
E133: T 0.08, H 0.17, Q -0.09, V -0.31, N 0.04, G -0.14, I -0.47, C 0.05, Y -0.25, K -0.35, M -0.21, S 0.19, R -0.14, L -0.3, W 0.5, F -0.38, A -0.35, P -1, D 0.54
R131: K 0.23, D 0.14, M 0.59, T -0.17, P -0.13, Q -0.6, C 0.15, I 0.65, E 0.66, F -0.03, A 0.14, Y 0.31, V 0.31, H -0.12, N 0.24, L 0.13, W 0.6, G 0.16, S -0.09
N132: C 0.33, E 0.11, A 0.15, Y 0.44, L -0.16, H 0.63, G 0.13, K -0.36, R -0.38, S -0.31, W -0.63, M -0.85, V -0.38, Q -0.01, T -0.61, D -0.52, I -0.22, P -1.06, F -0.11
K124: T 0.31, E -0.5, A -0.41, S 0.11, D -0.66, I 0.1, R 0.3, Q 0.27, G 0.08, P 0.61, C 0.21, V 0.39, L 0.07, M -0.6, H -0.35, W -0.36, N 0.4, Y 0.18, F -0.08
G129: E -0.9, H -0.43, S 0.47, C -1.01, A -0.41, N -0.81, W -1.42, P 0.12, R -1.04, L -1.15, Q -1.09, V -0.74, Y -0.91, F -0.78, M -0.82, T -0.06, D -0.94, K -1.37, I -0.84
